Measurements from publication PMC11019746 (ACS Pharmacology & Translational Science, 2024).
Like-named read-outs stand apart in the source and are kept apart here. Where no end group is shown, it is not given here.

T1: hY1R (Homo sapiens, UniProt P25929)
T1 construct: host or cells: SK-N-MC neuroblastoma cells
T1 sequence (P25929 1-384): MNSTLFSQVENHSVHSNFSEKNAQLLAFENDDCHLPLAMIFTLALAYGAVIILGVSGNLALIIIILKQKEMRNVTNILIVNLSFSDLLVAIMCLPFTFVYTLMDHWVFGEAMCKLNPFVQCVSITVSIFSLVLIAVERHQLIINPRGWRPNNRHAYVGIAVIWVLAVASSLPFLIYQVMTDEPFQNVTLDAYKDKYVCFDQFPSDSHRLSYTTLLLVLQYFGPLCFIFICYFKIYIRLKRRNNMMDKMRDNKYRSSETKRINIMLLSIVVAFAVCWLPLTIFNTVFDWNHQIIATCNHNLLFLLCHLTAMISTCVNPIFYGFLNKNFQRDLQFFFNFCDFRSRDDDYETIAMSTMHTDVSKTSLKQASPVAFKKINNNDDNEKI

T2: hY2R (Homo sapiens, UniProt P49146)
T2 construct: host or cells: CHO
T2 sequence (P49146 1-381): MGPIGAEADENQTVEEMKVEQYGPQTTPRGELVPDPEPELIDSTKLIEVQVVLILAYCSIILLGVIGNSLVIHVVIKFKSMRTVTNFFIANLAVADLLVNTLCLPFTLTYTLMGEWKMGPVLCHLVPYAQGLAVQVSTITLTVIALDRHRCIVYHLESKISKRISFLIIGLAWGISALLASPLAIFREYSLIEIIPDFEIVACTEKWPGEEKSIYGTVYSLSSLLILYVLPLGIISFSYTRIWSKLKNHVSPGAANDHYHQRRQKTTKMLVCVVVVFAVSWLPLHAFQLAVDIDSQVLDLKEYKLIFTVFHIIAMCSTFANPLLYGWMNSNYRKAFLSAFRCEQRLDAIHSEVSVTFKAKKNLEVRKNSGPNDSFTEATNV

T3: hY5R (Homo sapiens, UniProt Q15761)
T3 construct: expressed in transfected cells; host or cells: HEC-1B (human endometrial cancer)
T3 sequence (Q15761 1-445): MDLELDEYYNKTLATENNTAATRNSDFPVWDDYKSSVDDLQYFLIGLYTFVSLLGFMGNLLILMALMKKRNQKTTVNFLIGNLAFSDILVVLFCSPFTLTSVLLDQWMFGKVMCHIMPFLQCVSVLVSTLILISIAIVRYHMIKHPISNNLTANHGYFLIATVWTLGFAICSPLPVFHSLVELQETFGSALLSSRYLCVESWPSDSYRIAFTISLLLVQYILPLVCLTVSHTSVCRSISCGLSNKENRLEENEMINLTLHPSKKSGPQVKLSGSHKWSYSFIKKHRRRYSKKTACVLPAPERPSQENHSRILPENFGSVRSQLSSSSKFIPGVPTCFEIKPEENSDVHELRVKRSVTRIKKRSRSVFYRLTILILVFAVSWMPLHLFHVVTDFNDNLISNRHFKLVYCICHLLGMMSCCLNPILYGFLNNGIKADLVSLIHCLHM

T4: human neuropeptide Y Y2 receptor (human, UniProt P49146 1-381)
T4 construct: also called hY2R; source: CHO-hY2R cells (from PerkinElmer), intact cells
T4 sequence (looked up): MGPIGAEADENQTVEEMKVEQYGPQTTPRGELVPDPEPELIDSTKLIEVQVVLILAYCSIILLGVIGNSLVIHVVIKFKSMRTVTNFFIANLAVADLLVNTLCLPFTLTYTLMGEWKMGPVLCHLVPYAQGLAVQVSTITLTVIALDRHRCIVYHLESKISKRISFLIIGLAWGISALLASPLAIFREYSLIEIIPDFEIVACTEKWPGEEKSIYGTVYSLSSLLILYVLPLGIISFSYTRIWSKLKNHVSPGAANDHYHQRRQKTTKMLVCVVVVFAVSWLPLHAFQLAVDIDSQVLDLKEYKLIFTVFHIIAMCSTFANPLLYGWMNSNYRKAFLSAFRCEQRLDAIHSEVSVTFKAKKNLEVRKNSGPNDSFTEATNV


Legend:
hY4R [1] = molecular target: T5, hY4R (Homo sapiens, UniProt P50391); parameters: expressed in transfected cells; host or cells: CHO (co-expressing Gqi5 and mitochondrially targeted aequorin); conditions: cited from earlier work
hY1R = molecular target: T1, hY1R; assay: Y1R radioligand competition binding, whole SK-N-MC cells, [3H]UR-MK299; conditions: SK-N-MC neuroblastoma cells, [3H]UR-MK299 c = […]; read-out: pKi ± SEM hY1R (converted)
Experimental: (§1) All radioligand binding assays were performed at intact Y receptor expressing cells at 23 ± 2 °C.
Competition binding assays at Y1R-expressing SK-N-MC neuroblastoma cells were performed as previously described using [^3H]UR-MK299 as radioligand (concentration: 0.15 nM).[33] […] (logarithmic form in the case of pKi values).

hY2R = molecular target: T2, hY2R; assay: Y2R radioligand competition binding, whole CHO-hY2R cells, [3H]propionyl-pNPY; conditions: read-out: pKi ± SEM hY2R (converted)
Experimental: as §1

hY5R = molecular target: T3, hY5R; assay: Y5R radioligand competition binding, whole HEC-1B-hY5R cells, [3H]propionyl-pNPY; conditions: [3H]propionyl-pNPY c = 5 nM
Experimental: as §1
(logarithmic form in the case of pKi values).

Y4R = Y4R (Homo sapiens, UniProt P50391); assay: Y4R miniGsi recruitment assay (HEK293T-NlucN-mGsi/Y4R-NlucC cells); format: cell-based; parameters: expressed in transfected cells; host or cells: HEK293T; conditions: read-out: miniGsi recruitment Emax ± SEM; note: relative to 1 µM hPP (100%)
Experimental: Furimazine was used as nanoluciferase substrate. The original stock was diluted 1:1000 in L15-HEPES to obtain the feed solution for the assay. Data analysis was performed based on the areas under the curves (time window: 45 min starting with the agonist addition) using GraphPad Prism 5. […] Efficacies Emax correspond to the upper plateaus of the normalized concentration–response curves.

hY4R [2] = molecular target: T5, hY4R; assay: Y4R Ca2+ aequorin assay (CHO-hY4R-Gqi5-mtAEQ cells); format: cell-based; parameters: expressed in transfected cells; host or cells: CHO (co-expressing Gqi5 and mitochondrially targeted aequorin); conditions: for EC50: CHO-hY4R-Gqi5-mtAEQ cells, agonist mode, read-out: Ca2+-aequorin pEC50 ± SEM (converted); for Emax: read-out: Ca2+-aequorin Emax ± SEM
Experimental: The assay was performed with live CHO-hY4R-Gqi5-mtAEQ cells as previously described (used buffer: buffer III). Measurements were carried out on a Tecan Infinite Lumi plate reader. Data analysis was performed as reported using GraphPad Prism 5 for the calculation of the area under the curve. […] Efficacies Emax correspond to the upper plateaus of the normalized concentration–response curves.

[3] = Chemical stability in PBS pH 7.4; format: physicochemical
Experimental: The chemical stability of the fluorescent ligands 16, 17, and 18 was investigated in PBS (adjusted to pH 7.4) at 22 °C. […] After time periods of 0, 6, and 48 h, an aliquot (25 μL) was withdrawn and added to 25 μL of acetonitrile/0.04% aq. TFA 1:9 v/v to obtain a peptide solution with a concentration of 50 μM. 20 μL of this solution were subjected to analytical RP-HPLC analysis using the same system and conditions as described under Analytical HPLC, but applying a different linear gradient: 0–14 min: A/B 90:10–45:55, 14–15 min: 45:55–5:95, 15–19 min: 5:95 (isocratic). A 1:1 mixture of PBS and acetonitrile/0.04% aq. TFA 1:9 v/v (20 μL) was analyzed to obtain the blank chromatogram.

[4] = molecular target: T6, human neuropeptide Y Y4 receptor (wild-type, CHO-hY4R-Gqi5-mtAEQ cells) (human, UniProt P50391 1-375); assay: cell-based or functional assay
[5] = molecular target: human neuropeptide Y Y1 receptor (human) (UniProt P25929); assay: radioligand binding; competition with [^3H]UR-MK299 ([…]) at intact SK-N-MC cells, 23 ± 2 °C, buffer II (150 mM NaCl)
[6] = molecular target: human neuropeptide Y Y5 receptor (human) (UniProt Q15761); assay: radioligand binding; competition with [^3H]propionyl-pNPY (5 nM) at intact HEC-1B-hY5R cells, 23 ± 2 °C, buffer II (150 mM NaCl)
[7] = molecular target: T4, human neuropeptide Y Y2 receptor; assay: radioligand binding; competition with [^3H]propionyl-pNPY (0.5 nM) at intact CHO-hY2R cells, 23 ± 2 °C, buffer I (sodium-free); conditions: one partner purified
[8] = molecular target: T6, human neuropeptide Y Y4 receptor …; assay: flow cytometry on cells; association (0.7 nM 16, 1 nM 17, 0.5 nM 18) and dissociation (started with excess hPP and 5) at CHO-hY4R-Gqi5-mtAEQ cells, DPBS (137 mM Na^+), 22 ± 2 °C; monophasic and biphasic fits; Kd(kin) = koff/kon; conditions: one partner purified

pKi [5] | pKi [6] | pKi [7] | kobs(bi,fast) [8] | kobs(bi,slow) [8] | kobs(mono) [8] | Molecule | Kd (hY4R [1]) | other results
– | – | – | – | – | – | 1: Sulfo-Cy5-labeled [K^4,Nle^17,30]hPP, reported Y4R fluorescent ligand [Compound 1] | 11 nM | –
– | – | – | – | – | – | 2: 5-TAMRA-labeled [K^18,Nle^17,30]hPP, reported Y4R fluorescent ligand [Compound 2] | 26 nM | –
– | – | – | – | – | – | C#CCCCCNC(=O)N=C(N)NCCC[C@@H]1NC(=O)CCC(=O)NCCCCNC(=O)N=C(N)NCCC[C@@H](C(=O)N[C@@H](CC(C)C)C(=O)N[C@@H](CCCNC(=N)N)C(=O)N[C@@H](Cc2ccc(O)cc2)C(N)=O)NC(=O)[C@H](Cc2ccc(O)cc2)NC1=O [Compound 11, (9S,12S,15S,E)-4-Amino-N-{(S)-1-[((S)-1-{[(S)-1-amino-3-(4-hydroxyphenyl)-1-oxopropan-2-yl]amino}-5-guanidino-1-oxopentan-2-yl)amino]-4-methyl-1-oxopentan-2-yl}-15-{3-[(E)-2-(hex-5-yn-1-ylcarbamoyl)guanidino]propyl}-12-(4-hydroxybenzyl)-2,11,14,17,20-pentaoxo-1,3,5,10,13,16,21-heptaazacyclopentacos-3-ene-9-carboxamide Tris(hydrotrifluoroacetate)] | – | Ki (hY1R): > 10 µM; Ki (hY2R): > 10 µM; Ki (hY5R; read-out: Ki hY5R (converted)): > 3000 nM; Ki (hY5R; read-out: pKi ± SEM hY5R (converted)): > 3160 nM; Emax (Y4R): 62 ± 1%; EC50 (hY4R [2]): 97.7 nM; Emax (hY4R [2]): 56 ± 3%
– | – | – | – | – | – | Cc1cc(/C=C/c2cc3c4c(c2)CCCN4CCC3)cc(C)[n+]1CCCC(=O)N[C@@H]1CC(=O)N[C@@H](CCCNC(=N)N)C(=O)N[C@@H](Cc2ccc(O)cc2)C(=O)N[C@H](C(=O)N[C@@H](CC(C)C)C(=O)N[C@@H](CCCNC(=N)N)C(=O)N[C@@H](Cc2ccc(O)cc2)C(N)=O)CCCNC(N)=NC(=O)NCCCCNC1=O [Compound 18] | – | Ki (hY1R): > 1 µM; Ki (hY2R): > 1 µM; Ki (hY5R; read-out: Ki hY5R (converted)): 840 nM; time with marginal degradation ([3]; PBS pH 7.4 (10% DMSO), room temperature): ≥ 6 h; chemical stability ([3]; PBS pH 7.4, room temperature, 48 h, 100 μM): slow decomposition; Emax (Y4R): 44 ± 2%; EC50 (hY4R [2]): 50.1 nM; Emax (hY4R [2]): 61 ± 5%
– | – | – | – | – | – | Sulfo-Cy5-[K^4]hPP: Sulfo-Cy5-labeled [K^4]hPP, reported fluorescent Y4R ligand (APLKPVYPGDNATPEQMAQYAADLRRYINMLTRPRY; not fully specified) | 5.6 nM | –
< 6 | < 6 | < 6 | – | – | – | RYRLRY (not fully specified; as 11; the alkyne of the carbamoylated arginine in position 1 joined by click chemistry (triazole) to the azido-functionalized pyridinium-type cyanine dye 15 (from Py-5); C-terminal amide, peptide chain as in 11, whose linear precursor 10 is printed in three-letter code at h-0020; 19 is made from 11 and dye 15; source: synthetic peptide: from 11 and the azido-functionalized dye 15 by copper(I)-catalyzed click reaction, preparative HPLC) [fluorescent ligand 19 (Py-5-labeled cyclic hexapeptide)] | – | EC50, Ca^2+-aequorin assay (CHO-hY4R-Gqi5-mtAEQ cells) [4]: 58 nM
6.91 | 6.32 | < 6 | 1 min⁻¹ | 0.048 min⁻¹ | 0.18 min⁻¹ | RYRLRY-NH2 (not fully specified (bridges); also: Cy3B conjugated to the amine of the cyclic precursor peptide 6, N^ω-carbamoylated arginine in the ring, position not given here, structure drawn in Scheme 2; source: synthetic peptide: from precursor peptide 6 and Cy3B succinimidyl ester (12), preparative HPLC) [fluorescent ligand 16 (Cy3B-labeled cyclic hexapeptide)] | – | –
< 6 | 6.08 | < 6 | 0.7 min⁻¹ | 0.034 min⁻¹ | 0.1 min⁻¹ | RYRLRY-NH2 (also: Py-1 cyanine dye on the amine of a carbamoylated Arg in the ring, position not given here, cyclic, ring closure not given here, peptide part as in m6; structure drawn in Scheme 2; source: synthetic peptide: from precursor peptide 6 and the pyrylium dye Py-1 (14), preparative HPLC) [fluorescent ligand 18 (Py-1-labeled cyclic hexapeptide)] | – | –
< 6 | < 6 | < 6 | 1.89 min⁻¹ | 0.071 min⁻¹ | 0.15 min⁻¹ | RYRLRY-NH2 (also: Sulfo-Cy5 (S0223) conjugated to the amine of the cyclic precursor peptide 6, N^ω-carbamoylated arginine in the ring, position not given here, peptide part as in m6; structure drawn in Scheme 2; source: synthetic peptide: from precursor peptide 6 and the succinimidyl ester 13 (S0586) of Sulfo-Cy5 (S0223), preparative HPLC) [fluorescent ligand 17 (Sulfo-Cy5-labeled cyclic hexapeptide)] | – | –
